According to paper PMC6268379, “Antifungal Activity of Homoaconitate and Homoisocitrate Analogs” (Molecules, 2012):

Legend:
[1] = substrate: O=C(O)CC[C@@](O)(CC(=O)O)C(=O)O; assay: Homoaconitase activity, coupled reaction with HIcDH, NADH at 340 nm; type: biochemical, Candida albicans; settings: other: recombinant C. albicans HA; pH 8.5; 20.0 °C
Description: (§1) Recombinant C. albicans homoaconitase (HA) and homoisocitrate dehydrogenase (HIcDH) containing oligoHis N-terminal tags were constructed and purified to near homogeneity as described earlier.
Activity of homoaconitase (HA) was measured by a coupled reaction with HIcDH by monitoring the reduction of NAD^+ to NADH at 340 nm. Reaction mixtures containing 50 mM Tris-HCl (pH 8.5), 50 mM KCl, 5 mM MgCl2, 20 mM dithiothreitol, 1 mM NAD^+ and 30 μg/mL of His6-HIcDH in a total volume of 0.9 mL were degassed under argon for 10 min, after which 0.05 mL of His6-HAC solution was added to a final concentration of 10 μg/mL. The reaction was initiated with addition of 0.05 mL of 50 mM (R)-homocitrate. The formation of NADH was measured for 30 s at 20 °C to determine initial reaction velocity. The initial rates were determined using a linear portion of the reaction progress curve.
(§2) The effects of novel compounds on the HA and HIcDH activity was determined by measuring the enzyme activity in standard assay mixtures containing various concentration of an inhibitor (0–10 mM). Inhibitory potential was expressed as IC50 values, i.e., concentrations causing 50% inhibition of enzyme activity in relation to control. All determinations were performed in triplicate.

[2] = substrate: O=C(O)CC[C@H](C(=O)O)[C@@H](O)C(=O)O; assay: Homoisocitrate dehydrogenase activity, NADH absorption at 340 nm; type: biochemical; settings: other: recombinant C. albicans HIcDH; pH 7.8; 20.0 °C
Description: as §1
Reaction catalyzed by homoisocitrate dehydrogenase (HIcDH) was monitored by measuring the NADH absorption at 340 nm. The standard assay mixture contained 10 mM KCl, 5.0 mM MgCl2, 5 mM NAD^+ and 0.1 mM (2R,3S)-homoisocitrate in 50 mM Hepes-NaOH (pH 7.8) buffer. The reaction mixture with all required components except for the enzyme was preincubated for 3 min and the reaction was started by an addition of the recombinant His6-HIcDH (50 μg). The formation of NADH was measured for 30 s at 20 °C to determine initial reaction velocity. The initial rates were determined using a linear portion of the reaction progress curve.
as §2

B1: recombinant homoaconitase (HA) (Candida albicans SC5314) (protein)
chain: MMLRFRSFSTTTHLLRGQNLTEKIVQKYAVGLQPSSKKVYSGDYVTIKPAHCMSHDNSWPVATKFMNLGASKVKDNRQIVCTLDHDVQNKSEQNLTKYTNIEKFAKSQGIDFYPAGRGIGHQIMIEEGYAFPLNLTVASDSHSNTYGGIGALGTPIVRTDAASIWATGQTWWQIPPVAKVELIGQLPKGVTGKDIIVALCGIFNNDEVLNHAIEFVGDDAISKLPIDYRLTIANMTTEWGALSGLFPVDETLVEFYQNRLKKLNKPDHPRINNQTIDQLINNKLTSDNDAVYAKHLQIDLSSLSPYISGPNSVKISNSLYDLSQQNIAINKAYLVSCTNSRLSDIQAAADIIKGHKVNPNVEFYVAAASSLVQKDAEQSGAWQTILDAGAKPLPAGCGPCIGLGTGLLKDGEVGISATNRNFKGRMGSKDALAYLASPEVVAASAVLGKIGGPEELNGEPVKQAPRIIKSIETESNSANEAESTSEEASGSIDILPGFPQSIEGELILCNADNINTDGIYPGKYTYQDDITKEQMAKVCMENYDSQFYSKTKPGDIIISGYNFGTGSSREQAATCILARGMKLIVAGSFGNIFSRNSINNALLTLEIPDLINKLRQQYEGNDELTIRTGWFLKWDVTKAQVTVVDGDDNLILTQKVGELGTNLQDIIVKGGLEGWVKSELKTNQ
notes: made in house
For B1, which Km [1] is on record?
The Km was 1500 µM.

B2: recombinant homoisocitrate dehydrogenase (HIcDH) (Candida albicans SC5314) (protein)
chain: STSSTTLKSLKIGLIPGDGIGREVIPAGKAVLENLPAKHDLQFEFVNLDAGFELFKKTGTALPDETVDVLKKECDGALFGAVSSPTTKVAGYSSPIVALRKKLGLYANVRPVKSVEGIGRPVDMVIVRENTEDLYIKEERVYKKEDGTKVAEAIKRITETASTRIAKMAYEIALQREAVRKGTSGKQLHEKPSVTVTHKSNVLSQSDGLFRETCRAVYDANANEYGGIEYKEQIVDSMVYRMFREPEIFDVVVAPNLYGDILSDGAAALVGSLGVVPSANVGDNFAIGEPCHGSAPDIEGKGISNPVATIRSTALMLEFMGYPEAAATIYQAVDANLAEDKIKTPDLGGNSTTQEVIDDIIRRF
For B2, which Km [2] is on record?
The Km was 74 µM.
